Consider two molecules from publication doi:10.1101/2022.01.25.477770 (bioRxiv, 2022).

For assay [1], the target named is T1, SARS-CoV spike peptide #154, PELDSFKEELDKYFKNH (SARS-CoV residues 1125–1141); corresponding to SARS-CoV-2 … (SARS-CoV, residues 1125-1141).
T1 construct: also called 17-residue peptide
T1 chain: PELDSFKEELDKYFKNH
Kind of assay: far-Western, overlay or dot blot. Conditions: both partners purified.

The target in assay [2] is T2, SARS-CoV-2 spike S2 subunit (SARS-CoV-2, UniProt P0DTC2).
T2 construct: also called S2 domain
Kind of assay: far-Western, overlay or dot blot. The conditions noted are these: both partners purified.

In assay [3] the target is T3, SARS-CoV-2 full-length spike, expressed on the cell surface (SARS-CoV-2 WA-1 (GenBank QHD43416.1), UniProt P0DTC2).
T3 construct: also called SARS-CoV-2 spike; WA-1 spike; source: Expi-293 cells, transiently transfected, on the cell surface
Kind of assay: flow cytometry on cells. The conditions noted are these: one partner purified.

Assay [4] concerns the target T4, hCoV-HKU1 full-length spike, expressed on the cell surface (hCoV-HKU1 isolate N1 (AAT98580.1), UniProt Q5MQD0).
T4 construct: also called hCoV-HKU1 spike; source: Expi-293 cells, transiently transfected, on the cell surface
Kind of assay: flow cytometry on cells. Conditions: one partner purified.

Assay [5] has as its target T5, MERS-CoV full-length spike, expressed on the cell surface (MERS-CoV EMC/2012 (GenBank AFS88936), UniProt K0BRG7).
T5 construct: also called MERS-CoV spike; MERS-CoV EMC
Kind of assay: flow cytometry on cells. Conditions: one partner purified. (A flow cytometer gives signals particle by particle.)

In assay [6] the target is T6, hCoV-OC43 full-length spike, expressed on the cell surface (hCoV-OC43 (AAT84354.1), UniProt P36334).
T6 construct: also called hCoV-OC43 spike; source: Expi-293 cells, transiently transfected, on the cell surface
Kind of assay: flow cytometry on cells. Conditions: one partner purified.

Assay [7] deals with T7, SARS-CoV-2 S1-short (spike residues 1–670) (SARS-CoV-2, UniProt P0DTC2).
T7 construct: also called S1-short1
Kind of assay: ELISA. Conditions: both partners purified.

The target of assay [8] is SARS-CoV-2 spike receptor-binding domain (RBD) (SARS-CoV-2, UniProt P0DTC2). Kind of assay: ELISA. Conditions: both partners purified.
The target of assay [9] is SARS-CoV-2 S-dTM (soluble spike protein residues 1–1206 of wildtype WA-1 strain) (SARS-CoV-2 WA-1, UniProt P0DTC2). Kind of assay: ELISA. The conditions noted are these: both partners purified.
For assay [10], the target named is hCoV-OC43 prefusion-stabilized spike (S2P) (hCoV-OC43 (AAT84354.1), UniProt P36334, stabilised). Kind of assay: ELISA. Conditions: both partners purified. (In general: In an ELISA, binding on a coated surface is turned into a signal by an enzyme label.)
Assay [11] addresses SARS-CoV-2 S1R (spike residues 1–537) (SARS-CoV-2, UniProt P0DTC2). Kind of assay: ELISA. Conditions: both partners purified.
Assay [12] concerns the target SARS-CoV-2 spike N-terminal domain (NTD) (SARS-CoV-2, WA-1 / Wuhan-Hu-1, UniProt P0DTC2). Kind of assay: ELISA. The conditions noted are these: both partners purified.
The target of assay [13] is hCoV-HKU1 prefusion-stabilized spike (S2P) (hCoV-HKU1 isolate N1 (AAT98580.1), UniProt Q5MQD0, stabilised). Kind of assay: ELISA. The conditions noted are these: both partners purified.
Assay [14] concerns the target T2, SARS-CoV-2 spike S2 subunit. Kind of assay: negative-stain EM. Conditions: both partners purified.

B1: antibody WS6 (IgG) (antibody, V domains shown)
VH: EVQFQQSGTVLARPGASVKMSCKASGYTFTNYWIHWVKQRPGQGLEYIGGTYPGNGDTTYNQKFKGKAKVTAVTPTSTAYMDLSSLTNEDSAVYYCTRTGSYFDYWGQGTTLTVSS
VL: QIVLTQSPAIMSASPGEKVTISCSATSSVSYIYWYQQRPGSSPKPWIYRTSNLASGVPVRFSGSGSGTSYSLTISNMEAEDAATYYCQQYQSYPPTFGAGTKLELK
notes: also called mAb WS6
Turning to B1, the binding result in assay [1], in assay [2], in assay [3], in [4], in assay [5] and in assay [6] was “binds” in each case. Moreover, the binding result is “no binding” in assay [7]; “no binding” in [8]; “binds” in assay [9]; “binds” in assay [10]; “no binding” in assay [11]; “no binding” in [12]. For the same molecule, the binding result in assay [13] is reported as “binds”.

B2: antigen-binding fragment (Fab) of WS6 (Fab, V domains shown)
VH: B1 VH
VL: B1 VL
notes: also called Fab WS6; WS6 Fab; source: generated from the mAb with the Pierce Fab kit
On to B2, for which the binding result in [14] is reported as “binds”.
